Experimental data: article PMC3272479 (Nature structural & molecular biology, 2012)

Molecular target: the molecule itself
Assay: crystal structure

B1: KirBac3.1 S129R mutant channel (natural protein)
chain: MTGGMKPPARKPRILNSDGSSNITRLGLEKRGWLDDHYHDLLTVSWPVFITLITGLYLVTNALFALAYLACGDVIENARPGSFTDAFFFSVQTMATIGYGKLIPIGPLANTLVTLEALCGMLGLAVAARLIYARFTRPTAGVLFSSRMVISDFEGKPTLMMRLANLRIEQIIEADVHLVLVRSEISQEGMVFRRFHDLTLTRSRSPIFSLSWTVMHPIDHHSPIYGETDETLRNSHSEFLVLFTGHHEAFAQNVHARHAYSCDEIIWGGHFVDVFTTLPDGRRALDLGKFHEIAQ
  stoichiometry N: 4
